# Data reported in the supplement of paper PMC9732359.
# ± gives the uncertainty stated by the source.
# Assay: protein stability index of a GFP-peptide fusion (yeast GPS) (PSI 1-4); higher = more stable; sorted into four equal gates, so the index is relative within each strain
# Method in brief: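 The protein stability index of a peptide was calculated by multiplying its read frequency in each gate by that gate's number and adding the products. The peptides were tiled 17-residue stretches of yeast proteins, fused downstream of GFP on a Cherry-expressing plasmid and carried in yeast as a pooled library. Mid-log cultures in leucine-free medium were sorted into four equal gates by GFP/Cherry ratio, and each gate's plasmids were PCR-amplified and Illumina-sequenced.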
sequence,measurement,setting,value
EYEKRNHGGSLGKYDLT [SRP68],protein stability index,doa10∆,2.81 ± 0.18
same,protein stability index,pdr5∆,2.56 ± 0.15
same,protein stability index,san1∆,2.15 ± 0.14
same,protein stability index,ubr1∆,1.3 ± 0.14
IEKSRLFSEKTIRYLMQ [SNF6],protein stability index,doa10∆,1.82 ± 0.069
same,protein stability index,pdr5∆,2.29 ± 0.048
same,protein stability index,san1∆,2.28 ± 0.084
same,protein stability index,ubr1∆,1.86 ± 0.055
KGPRFRKLTSQEINDRL [PRE8],protein stability index,doa10∆,3.09 ± 0.098
same,protein stability index,pdr5∆,3.19 ± 0.11
same,protein stability index,san1∆,3.06 ± 0.18
same,protein stability index,ubr1∆,3.58 ± 0.093
ALKDPQTDADRVKDPQW [RIP1],protein stability index,doa10∆,3.26 ± 0.081
same,protein stability index,pdr5∆,3.68 ± 0.23
same,protein stability index,san1∆,3.18 ± 0.25
same,protein stability index,ubr1∆,3.6 ± 0.16
VVRNMLALTTLSEPLIK [YCG1],protein stability index,doa10∆,1.87 ± 0.07
same,protein stability index,pdr5∆,1.6 ± 0.059
same,protein stability index,san1∆,1.4 ± 0.11
same,protein stability index,ubr1∆,1.66 ± 0.061
TRNITDYSINSRYEPKV [PRE7],protein stability index,doa10∆,2.62 ± 0.053
same,protein stability index,pdr5∆,2.7 ± 0.049
same,protein stability index,san1∆,2.99 ± 0.046
same,protein stability index,ubr1∆,2.88 ± 0.047
NFYLKRFISDLLWLVLI [SWI1],protein stability index,doa10∆,1.8 ± 0.054
same,protein stability index,pdr5∆,1.88 ± 0.065
same,protein stability index,san1∆,1.86 ± 0.095
same,protein stability index,ubr1∆,1.59 ± 0.046
SEEPTDFGFDLDIEKEA [MCD1],protein stability index,doa10∆,2.77 ± 0.25
same,protein stability index,ubr1∆,3.24 ± 0.14
HVVGRIAEVGNKRWKVD [RRP4],protein stability index,pdr5∆,3 ± 0.17
same,protein stability index,san1∆,2.89 ± 0.16
same,protein stability index,ubr1∆,2.67 ± 0.082
EEREGTDQSTEEEKSVD [CSL4],protein stability index,doa10∆,3.16 ± 0.16
FAQGKRRYDRKQSGFGG [RPL42A],protein stability index,doa10∆,3.6 ± 0.25
same,protein stability index,pdr5∆,3.57 ± 0.28
same,protein stability index,san1∆,3.06 ± 0.29
same,protein stability index,ubr1∆,3.34 ± 0.061
FDYMNRYWVQKERSDGK [CDC53],protein stability index,doa10∆,2.26 ± 0.16
same,protein stability index,san1∆,2.39 ± 0.21
same,protein stability index,ubr1∆,2.57 ± 0.18
ANGGSTIISPHKDIPEE [DSN1],protein stability index,doa10∆,3.44 ± 0.21
same,protein stability index,pdr5∆,3.44 ± 0.16
same,protein stability index,san1∆,3.57 ± 0.079
same,protein stability index,ubr1∆,2.88 ± 0.28
ANLLQINVDNDPFFAQS [YML103C/NUP188],protein stability index,doa10∆,3.04 ± 0.059
same,protein stability index,pdr5∆,3.14 ± 0.06
same,protein stability index,san1∆,2.88 ± 0.055
same,protein stability index,ubr1∆,2.93 ± 0.094
NTHAVLVALKRNADELS [PRE5],protein stability index,doa10∆,2.13 ± 0.067
same,protein stability index,pdr5∆,2.69 ± 0.05
same,protein stability index,san1∆,2.45 ± 0.05
same,protein stability index,ubr1∆,2.41 ± 0.039
KDGEIMLWNLAAKKAMY [ASC1],protein stability index,doa10∆,2.55 ± 0.071
same,protein stability index,pdr5∆,1.87 ± 0.05
same,protein stability index,san1∆,2.26 ± 0.067
same,protein stability index,ubr1∆,1.76 ± 0.097
LALMTAHSLSPKDYIKK [CDC53],protein stability index,doa10∆,3.1 ± 0.06
same,protein stability index,pdr5∆,3.03 ± 0.059
same,protein stability index,san1∆,3.25 ± 0.04
same,protein stability index,ubr1∆,3.15 ± 0.052
NLVSLLIIVTRKNYMHV [YML031W/NDC1],protein stability index,doa10∆,1.21 ± 0.041
same,protein stability index,pdr5∆,1.22 ± 0.039
same,protein stability index,san1∆,1.26 ± 0.11
same,protein stability index,ubr1∆,1.3 ± 0.033
AGNSQITSGGFLLKAYI [SRB5],protein stability index,doa10∆,2.11 ± 0.1
same,protein stability index,pdr5∆,2.53 ± 0.097
same,protein stability index,san1∆,2.24 ± 0.17
same,protein stability index,ubr1∆,2.92 ± 0.11
ISAPSMEDEILSLGMDF [BRN1],protein stability index,doa10∆,3.15 ± 0.057
same,protein stability index,pdr5∆,3.23 ± 0.05
same,protein stability index,san1∆,3.19 ± 0.05
same,protein stability index,ubr1∆,3.12 ± 0.044
EVKEQLGILKKKRFDEF [SMC4],protein stability index,pdr5∆,2.68 ± 0.22
same,protein stability index,san1∆,2.35 ± 0.23
same,protein stability index,ubr1∆,3.03 ± 0.12
VSLCAKNMGLVPMKEEN [SSN2],protein stability index,doa10∆,1.89 ± 0.086
same,protein stability index,pdr5∆,2.38 ± 0.075
same,protein stability index,san1∆,1.99 ± 0.11
same,protein stability index,ubr1∆,2.26 ± 0.093
DTYPYLTGEWSTKFDYP [FAS1],protein stability index,doa10∆,3.19 ± 0.073
same,protein stability index,pdr5∆,2.96 ± 0.079
same,protein stability index,san1∆,2.85 ± 0.063
same,protein stability index,ubr1∆,2.94 ± 0.057
MGAYKYLEELQRKKQSD [RPL15A],protein stability index,pdr5∆,2.75 ± 0.28
ETQYFWKLLNQLVLRGL [YJR042W/NUP85],protein stability index,doa10∆,2.18 ± 0.19
same,protein stability index,pdr5∆,1.26 ± 0.074
same,protein stability index,san1∆,1.26 ± 0.11
same,protein stability index,ubr1∆,1.16 ± 0.1
VLIKKGQSAGKLAAIVE [RPL14A],protein stability index,doa10∆,2.99 ± 0.2
same,protein stability index,pdr5∆,3.14 ± 0.16
same,protein stability index,ubr1∆,2.77 ± 0.18
ISKHSKQAIYTRAAASE [RPS25B],protein stability index,doa10∆,2.74 ± 0.055
same,protein stability index,pdr5∆,2.73 ± 0.048
same,protein stability index,san1∆,2.6 ± 0.047
same,protein stability index,ubr1∆,2.86 ± 0.041
GRDAFHLRVRVHPFHVL [RPL10],protein stability index,doa10∆,1.7 ± 0.061
same,protein stability index,pdr5∆,2 ± 0.077
same,protein stability index,san1∆,1.86 ± 0.11
same,protein stability index,ubr1∆,2.09 ± 0.048
